The source of these data is patent publication US9057734B2, “Optogenetic probes for measuring membrane potential” (President and Fellows of Harvard College, priority 2010, dated 2015).

“Also recorded” adds a separate entry of the source.

The test system of data set [1] is E. coli. Nature of the data set: Chemical perturbation of fluorescence flashing of E. coli expressing PROPS. Format: cell-based. The following applies: 20 μg/mL. From the text:
PROPS was expressed in E. coli, the cells were immobilized on a glass coverslip, and imaged in an inverted epifluorescence microscope while gently flowing minimal medium at pH 7 over the cells. […] The flashes occurred simultaneously (to within the 10 ms imaging resolution) and homogeneously over the extent of a cell. Flashes were uncorrelated between neighboring cells.
Flashing cells were subjected to chemical perturbations in an effort to deduce the mechanism of the voltage changes. In unstirred medium in a sealed chamber, the flashing ceased over ˜15 minutes; but re-started upon addition of freshly oxygenated medium. Removal of oxygen from the medium using Oxyrase also reversibly eliminated flashing. From these experiments it was concluded that flashing requires aerobic respiration. Under continuous gentle flow of aerated minimal medium, cells flashed continuously for >1 hr. Cells stored in minimal media for several days at 4° C. started flashing when warmed to room temperature.
Flashing was highly sensitive to pHo, occurring only between pH 7 and 9. Flashing frequencies increased and on-time decreased at lower pH. Flashing was more likely to be periodic at lower pH. Extremes of pH (<6 or >9.5) irreversibly eliminated flashing, causing cells to enter the bright state in an abrupt transition.

The nature of data set [2]: Spectroscopic characterization of purified Arch WT and D95N. Format: physicochemical. Here is the method:
FIGS. 17A-17C show pH-dependent spectra of Arch 3 WT and D95N. […] At neutral pH, Arch absorbed maximally at 558 nm. Fluorescence emission (dashed line) was recorded on 2 μM protein solubilized in 1% DM, with λexc=532 nm. […] The absorption maximum was at 585 nm. […] Singular Value Decomposition of absorption spectra between 400-750 nm was used to calculate the fraction of the SB in the protonated state as a function of pH. The result was fit to a Hill function to determine the pKa of the SB.
Arch and its D95N mutant were expressed and purified from E. coli, following Bergo, V., et al. (Conformational changes detected in a sensory rhodopsin II-transducer complex. J. Biol. Chem. 278, 36556-36562 (2003)). Briefly, E. coli (strain BL21, pet28b plasmid) was grown in 1 L of LB with 100 μg/mL kanamycin, to an O.D 600 of 0.4 at 37° C. All-trans retinal (5 μM) and inducer (IPTG 0.5 mM) were added and cells were grown for an additional 3.5 hours in the dark. Cells were harvested by centrifugation and resuspended in 50 mM Tris, 2 mM MgCl2 at pH 7.3 and lysed with a tip sonicator for 5 minutes. The lysate was centrifuged and the pellet was resuspended in PBS supplemented with 1.5% dodecyl maltoside (DM). The mixture was homogenized with a glass/teflon Potter Elvehjem homogenizer and centrifuged again. The supernatant was concentrated and washed using a centricon 30k MWCO filter to a final volume of 3 mL.
The absorption spectra of purified Arch 3 WT and D95N were determined using an Ocean Optics USB4000 spectrometer with a DT-MINI-2-GS light source. Absorption spectra, for Arch 3 WT and D95N, were measured as a function of pH between pH 6 and 11. To determine the fluorescence emission spectra, proteins in a quartz cuvette were illuminated with the uncollimated beam of a 100 mW, 532 nm laser (Dragon Lasers, 532GLM100) or a 25 mW, 633 nm HeNe laser (Spectra-Physics). Scattered laser light was blocked with a 532 nm Raman notch filter (Omega Optical, XR03) or a 710/100 emission filter (Chroma), and fluorescence was collected perpendicular to the illumination with a 1000 micron fiber, which passed the light to an Ocean Optics QE65000 spectrometer. Spectra were integrated for 2 seconds.
The fluorescence quantum yields of Arch 3 WT and D95N were determined by comparing the integrated emission intensity to emission of a sample of the dye ALEXA FLUOR® 647 Conjugate. Briefly, the concentrations of micromolar solutions of dye and protein were determined using a visible absorption spectrum. […] The fluorescence emission spectra of dye and protein samples were measured with 633 nm excitation. The quantum yield was then determined by the formula
where Fl is the integrated fluorescence from 660 to 760 nm, ε is the extinction coefficient at 633 nm and c is the concentration.

The subject of data set [3] is HEK cells. Nature of the data set: Photocurrents under 640 nm illumination in voltage-clamped cells. Format: cell-based, human. The following applies: illumination at 640 nm. Here is the method:
Measurements of photocurrents were performed on HEK cells held in voltage clamp at 0 mV while being exposed to brief (200 ms) pulses of illumination at 640 nm at an intensity of 1800 W/cm^2.

Data set [4] has as its system neurons. As to the kind of experiment: Light-induced photocurrent and perturbation of membrane potential in neurons. Format: cell-based, rat. The following applies: 640 nm, 1800 W/cm2. An excerpt:
Under illumination conditions typically used for imaging neural activity (I=1800 W/cm2 in total internal reflection (TIR) mode), the light-induced outward photocurrent was typically 10 pA in neurons expressing Arch 3 WT. Under current-clamp conditions this photocurrent shifted the resting potential of the neurons by up to −20 mV. For neurons near their activation threshold, this photocurrent could suppress firing (FIG. 9A), so we explored the non-pumping variant D95N as a voltage indicator in neurons.
Whole-cell current clamp recordings were obtained from mature neurons under the same conditions used for HEK cells recordings. Series resistance and pipette capacitance were corrected. Only neurons having resting potentials between −50 and −70 mV were used in the analysis.

Data set [5] concerns HEK-293 cells. As to the kind of experiment: Fluorescence versus membrane potential under whole-cell voltage clamp (ramp, step, frequency response, noise). Format: cell-based, human. Here is the method: Fluorescence of Arch 3 in HEK 293 cells was readily imaged in an inverted fluorescence microscope with red illumination (λ=640 nm, I=540 W/cm^2), a high numerical aperture objective, a Cy5 filter set, and an EMCCD camera. […] Cells not expressing Arch were not fluorescent.
HEK-293 cells were grown at 37° C., 5% CO2, in DMEM supplemented with 10% FBS and penicillin-streptomycin. Plasmids were transfected using LIPOFECTAMINE™ and PLUS reagent (Invitrogen) following the manufacturer's instructions, and assayed between 48-72 hours later. The day before recording, cells were re-plated onto glass-bottom dishes (MatTek) at a density of ˜5000 cells/cm^2.
The concentration of endogenous retinal in the HEK cells was not known, so the cells were supplemented with retinal by diluting stock retinal solutions (40 mM, DMSO) in growth medium to a final concentration of 5 μM, and then placing the cells back in the incubator for 1-3 hours. All imaging and electrophysiology were performed in Tyrode's buffer (containing, in mM: 125 NaCl, 2 KCl, 3 CaCl2, 1 MgCl2, 10 HEPES, 30 glucose pH 7.3, and adjusted to 305-310 mOsm with sucrose). Only HEK cells having reversal potentials between −10 and −40 mV were included in the analysis.
Simultaneous fluorescence and whole-cell patch clamp recordings were acquired on a home-built, inverted epifluorescence microscope at room temperature. A diode laser operating at 100 mW, 640 nm (CrystaLaser, DL638-100-O) provided wide-field illumination at an intensity typically between 500-2000 W/cm^2. To minimize background signal from out-of-focus debris, illumination was often performed in through-the-objective total internal reflection fluorescence (TIRF) mode. Fluorescence emission was collected using a 60×, 1.45 NA oil immersion objective (Olympus), and separated from scattered excitation using a 660-760 nm bandpass emission filter (Chroma). For fast imaging of dynamic fluorescence responses and action potentials, images were acquired on an Andor iXon^+ 860 camera operating at up to 2,000 frames/s (using a small region of interest and pixel binning). Slower images with higher spatial resolution were acquired on an Andor iXon^+ 897 EMCCD. Custom software written in LabView (National Instruments) was used to synchronize illumination, collection of images, recording of membrane potential and cell current, and application of electrical stimuli to the cell.
Filamented glass micropipettes (WPI) were pulled to a tip resistance of 3-10 MΩ, fire polished, and filled with internal solution (containing, in mM: 125 Potassium gluconate, 8 NaCl, 0.6 MgCl2, 0.1 CaCl2, 1 EGTA, 10 HEPES, 4 Mg-ATP, 0.4 Na-GTP, pH 7.3; adjusted to 295 mOsm with sucrose). The micropipettes were positioned with a Burleigh PCS 5000 micromanipulator. Whole-cell, voltage clamp recordings were acquired using an AxoPatch 200B amplifier (Molecular Devices), filtered at 2 kHz with the internal Bessel filter, and digitized with a National Instruments PCIE-6323 acquisition board at 10 kHz. Ambient 60 Hz noise was removed using a HumBug Noise Eliminator (AutoMate Scientific). For experiments requiring rapid modulation of transmembrane potential, series resistance and whole-cell capacitance were predicted to 95% and corrected to ˜50%. Electrical stimuli were generated using the PCIE-6323 acquisition board and sent to the AXOPATCH™, which then applied these signals in either constant current or constant voltage mode.
To measure fluorescence as a function of membrane potential, a triangle wave was applied, with amplitude from −150 mV to +150 mV and period 12 s, with video recording at 100 ms per frame. A pixel weight matrix was calculated according to Eq. S2 and applied to the movie images to generate a fluorescence number for each frame. These fluorescence values were divided by their minimum value (at V=−150 mV). The result is plotted as a function of Vin FIGS. 7 and 8. […]

In the case of `N#CC(C#N)=NNc1cccc(Cl)c1` [CCCP, Carbonyl cyanide 3-chlorophenylhydrazone], the effect on blinking entry in data set [1] was “rapidly and irreversibly eliminated the blinking”.

B1: Arch D95N: D95N mutant of Archaerhodopsin 3 without photocurrent, voltage indicator (protein, UniProt P96787 7-258, looked up, variant D95N)
Archaerhodopsin-3: QAGYDLLGDGRPETLWLGIGTLLMLIGTFYFLVRGWGVTDKDAREYYAVTILVPGIASAAYLSMFFGIGLTEVTVGGEMLDIYYARYANWLFTTPLLLLDLALLAKVDRVTIGTLVGVDALMIVTGLIGALSHTAIARYSWWLFSTICMIVVLYFLATSLRSAAKERGPEVASTFNTLTALVLVLWTAYPILWIIGTEGAGVVGLGIETLLFMVLDVTAKVGFGFILLRSRAILGDTEAPEPSAGADVSAAD
Turning to B1, the ε633 in data set [2] (calibrated assuming peak extinction coefficient of Bacteriorhodopsin, 63,000 M^−1 cm^−1) is listed as 37,500 M^−1cm^−1. Moreover, the QY in data set [2] (comparison to Alexa 647, excitation at 633 nm) is reported as 4 × 10^−4. In addition, the “photocurrent / photoinduced proton pumping” value in data set [3] was “no photocurrent; also recorded: eliminated the photocurrent”; in data set [3] (listed as Arch 3 D95N) it was “lacks photoinduced proton pumping”. Also, the “effect of illumination on membrane potential” value in data set [4] is “no effect of illumination on spiking or resting potential; also recorded: did not perturb membrane potential”. In addition, the “comparison with Arch 3 WT” value in data set [5] was “more sensitive and brighter than Arch 3 WT, but had a slower response”. In data set [5] (HEK cells), this molecule returned a voltage steps resolved/reported of 10 mV. The “fast component of step response, time” value in data set [5] (step response) is given as below 500 μs. In addition, the “response time to a step in membrane potential” value in data set [5] (steps between −70 mV and +30 mV) is 40 ms. The “increase of fluorescence (fold/factor) between −150 mV and +150 mV” value in data set [5] (whole-cell voltage clamp) is listed as 3.
